± gives the standard deviation of the averaged measurements.
What follows are sequences tested on ATP (assay: switch fluorescence ratio, 500 uM ATP over buffer (Cy3 cluster intensity, sum of 5 cycles each) (fold (ratio)); higher = stronger signal-on switching upon ATP binding; sequences stand for … in TCGTCGGCAGCGTCAGATGTGTATAAGAGACAGTTTTTTTTTTTTTTTTTTTTTTTTT…TC). Settings: aptamer strand: ATP DNA aptamer (quencher-CACCTGGGGGAGTATTGCGGAGGAAGG + anchor), 100 nM annealed; ATP concentration: 500 uM.
Outline: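 The fluorescence ratio divides summed target-cycle Cy3 intensity by summed buffer-cycle Cy3 intensity for each cluster and is averaged per switch-domain sequence. Cy3-labelled switching-strand clusters on a modified Illumina MiSeq flow-cell were annealed to 100 nM quencher-labelled ATP aptamer, then imaged in selection buffer and again after 15 min with 500 uM ATP at 22 °C. Five such cycles were run, with NaOH stripping and re-annealing between them, and clusters outside 100-1000 RFU were excluded.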
TTTATTCCGT gave a switch fluorescence ratio of 0.999 ± 0.037.
In the case of GATTTATTTT, the switch fluorescence ratio is reported as 0.994 ± 0.017.
AGTAGGAAGG gave a switch fluorescence ratio of 1.01 ± 0.019.
For GTAATGAGCG, the switch fluorescence ratio was 0.998 ± 0.044.
Sequence AAGTGTATGC has a switch fluorescence ratio of 1.01 ± 0.038.
GACCGCAGCA showed a switch fluorescence ratio of 4.22 ± 0.49.
TTTACCGGGA showed a switch fluorescence ratio of 1.13 ± 0.15.
In the case of GTCGTCTTAC, the switch fluorescence ratio is reported as 1.05 ± 0.045.
AAGCTTTACG was tested, and the switch fluorescence ratio was 1.052 ± 0.0079.
Work on AGGGAGCGGC yielded a switch fluorescence ratio of 1.11 ± 0.035.
In the case of ATCTTAGTAA, the switch fluorescence ratio is reported as 0.9998 ± 0.0099.
ATTAAGACAG showed a switch fluorescence ratio of 0.973 ± 0.032.
TCGCGTCTCA was tested, and the switch fluorescence ratio was 1.01 ± 0.046.
TAATGACTGT was tested, and the switch fluorescence ratio was 1.02 ± 0.045.
For TTGATGGTCA, the switch fluorescence ratio was 0.943 ± 0.041.
For GTATGGATGT, the switch fluorescence ratio was 1.007 ± 0.0043.
ACGAAAGGGA was tested, and the switch fluorescence ratio was 1.11 ± 0.029.
Work on TGGCGATTTT yielded a switch fluorescence ratio of 0.978 ± 0.048.
ATATTTTAAG was tested, and the switch fluorescence ratio was 0.994 ± 0.034.
Work on TCAGAGAAGA yielded a switch fluorescence ratio of 0.962 ± 0.023.
AAACAGTAGA was tested, and the switch fluorescence ratio was 1.07 ± 0.042.
GGTCCGGGCT gave a switch fluorescence ratio of 1 ± 0.02.
Sequence GCAGGGGTTG has a switch fluorescence ratio of 1.03 ± 0.071.
For CGCGGGAGGG, the switch fluorescence ratio was 1.04 ± 0.022.
GGTTGTGACG showed a switch fluorescence ratio of 1 ± 0.08.
Work on TCGGGGGGG yielded a switch fluorescence ratio of 1.01 ± 0.016.
AAGATGATGG was tested, and the switch fluorescence ratio was 1.01 ± 0.023.
Work on GTGGCAGGGG yielded a switch fluorescence ratio of 1.36 ± 0.63.
In the case of ATACGATATT, the switch fluorescence ratio is reported as 1.142 ± 0.0033.
AGGGTTAGTC gave a switch fluorescence ratio of 1.03 ± 0.058.
Work on AATGTGCTGG yielded a switch fluorescence ratio of 0.993 ± 0.018.
ACGGGGGGCA showed a switch fluorescence ratio of 1.01 ± 0.048.
Sequence TTAGGCAGAT has a switch fluorescence ratio of 1.24 ± 0.36.
With AGGTTCACTA the switch fluorescence ratio was 1.01 ± 0.06.
In the case of TATTGCGTGG, the switch fluorescence ratio is reported as 0.9836 ± 0.0073.
With GAGGTTTAAT the switch fluorescence ratio was 0.981 ± 0.039.
Work on GTATACGCAG yielded a switch fluorescence ratio of 1.02 ± 0.026.
Work on AAGTTGTGTT yielded a switch fluorescence ratio of 0.996 ± 0.033.
In the case of GGTTGCAGTC, the switch fluorescence ratio is reported as 0.946 ± 0.025.
Sequence AAAAAGCTTT has a switch fluorescence ratio of 1.026 ± 0.0047.
TAGTTCTGTT showed a switch fluorescence ratio of 0.983 ± 0.0077.
Sequence TTTTATGCCC has a switch fluorescence ratio of 0.9772 ± 0.0032.
For AAGTACCTAT, the switch fluorescence ratio was 1.27 ± 0.058.
For TCAAAAAGTG, the switch fluorescence ratio was 0.989 ± 0.034.
With TTTTCTTCTT the switch fluorescence ratio was 1.02 ± 0.068.
Sequence CGGTCAATTG has a switch fluorescence ratio of 1 ± 0.036.
For AACGATAGCA, the switch fluorescence ratio was 1.08 ± 0.016.
Work on GAATGTAGTT yielded a switch fluorescence ratio of 1.01 ± 0.017.
With CGAATATACG the switch fluorescence ratio was 1.04 ± 0.021.
For ATTGGGCTTC, the switch fluorescence ratio was 1.01 ± 0.015.
Sequence GATGAAGCGA has a switch fluorescence ratio of 1.19 ± 0.02.
With CGTAGTTTGC the switch fluorescence ratio was 1.52 ± 0.098.
Sequence TGGGCTTTAG has a switch fluorescence ratio of 0.967 ± 0.041.
CATATAGCAC showed a switch fluorescence ratio of 1.18 ± 0.019.
TTTCGGTGTT showed a switch fluorescence ratio of 0.981 ± 0.041.
In the case of AGGTCCGGAA, the switch fluorescence ratio is reported as 1.14 ± 0.017.
Sequence ATTCATCGTA has a switch fluorescence ratio of 1.0012 ± 0.0006.
With TCGGGGCGCG the switch fluorescence ratio was 0.975 ± 0.061.
GGGGAGGAAG gave a switch fluorescence ratio of 0.997 ± 0.012.
TTAGCGGTGG was tested, and the switch fluorescence ratio was 0.926 ± 0.057.
GCACGGGGAT showed a switch fluorescence ratio of 1.02 ± 0.033.
With AAAAAAGAAT the switch fluorescence ratio was 0.9938 ± 0.0096.
CGATTCTTTT was tested, and the switch fluorescence ratio was 0.979 ± 0.01.
In the case of ACGGGGGGGC, the switch fluorescence ratio is reported as 1.09 ± 0.06.
With AATGGTTTAT the switch fluorescence ratio was 0.9489 ± 0.0065.
Sequence CGTGATAAGT has a switch fluorescence ratio of 1.02 ± 0.021.
In the case of GGTTACAATT, the switch fluorescence ratio is reported as 0.982 ± 0.032.
With CAAAAAGAAT the switch fluorescence ratio was 1.003 ± 0.0048.
With AAGGCAACGC the switch fluorescence ratio was 0.98 ± 0.056.
In the case of CTTATCTCTT, the switch fluorescence ratio is reported as 1.02 ± 0.025.
In the case of AAACGGCATC, the switch fluorescence ratio is reported as 1.073 ± 0.0074.
For AACGTTGTAC, the switch fluorescence ratio was 1.51 ± 0.037.
For GAATGGGGCA, the switch fluorescence ratio was 0.978 ± 0.032.
For GGTCGAAAGG, the switch fluorescence ratio was 0.985 ± 0.063.
GCTGAGGCAA was tested, and the switch fluorescence ratio was 1.06 ± 0.015.
In the case of GGGTTGTGAT, the switch fluorescence ratio is reported as 0.984 ± 0.014.
ACATTGGCTA showed a switch fluorescence ratio of 1 ± 0.035.
CCTAGGGGAG showed a switch fluorescence ratio of 1.04 ± 0.04.
GGATTAATTT was tested, and the switch fluorescence ratio was 0.98006 ± 0.00058.
Work on CGACCTTGGC yielded a switch fluorescence ratio of 1.02 ± 0.1.
CGGGTTTGTT showed a switch fluorescence ratio of 0.997 ± 0.02.
TCGGGGGGGC showed a switch fluorescence ratio of 1.01 ± 0.072.
Sequence GGGGGGTTAG has a switch fluorescence ratio of 0.991 ± 0.029.
TGAGTGTGCT gave a switch fluorescence ratio of 0.972 ± 0.011.
TCTGCGGGGA was tested, and the switch fluorescence ratio was 1.14 ± 0.21.
Sequence ATCATGACTG has a switch fluorescence ratio of 1.015 ± 0.005.
With CATTACAGGG the switch fluorescence ratio was 1.01 ± 0.023.
Sequence AGTGGGGGG has a switch fluorescence ratio of 1.0071 ± 0.001.
For GCGGGGCCCA, the switch fluorescence ratio was 1.01 ± 0.013.
In the case of TGTAAGGGAC, the switch fluorescence ratio is reported as 1.07 ± 0.034.
TTTTCTTTAT showed a switch fluorescence ratio of 1.03 ± 0.036.
Work on GTATGACGTA yielded a switch fluorescence ratio of 0.968 ± 0.037.
With TATAACATG the switch fluorescence ratio was 1.009 ± 0.0025.
In the case of AGGGAGAGCG, the switch fluorescence ratio is reported as 0.991 ± 0.071.
Work on TGGACCTGAA yielded a switch fluorescence ratio of 1.1 ± 0.038.
With GTAACGGGGC the switch fluorescence ratio was 0.982 ± 0.049.
With GTGGTAAGAT the switch fluorescence ratio was 0.991 ± 0.037.
Work on AATCGTATTC yielded a switch fluorescence ratio of 0.972 ± 0.011.
For AACAGGATGC, the switch fluorescence ratio was 1.027 ± 0.0039.
Sequence CTATCACAGG has a switch fluorescence ratio of 2.01 ± 0.08.
GGAAGGTACG showed a switch fluorescence ratio of 0.9856 ± 0.0062.
With TGTACGTAG the switch fluorescence ratio was 1.01 ± 0.012.
For TTGAGTATTT, the switch fluorescence ratio was 0.98182 ± 0.00089.
Work on ATAGGATATA yielded a switch fluorescence ratio of 1.03 ± 0.018.
Sequence TCCATGTTTT has a switch fluorescence ratio of 1.14 ± 0.22.
GAATTGGATG was tested, and the switch fluorescence ratio was 0.965 ± 0.052.
With AGCTTTATGC the switch fluorescence ratio was 0.935 ± 0.043.
GCATGAGGAT gave a switch fluorescence ratio of 1.01 ± 0.06.
In the case of AATCAAAAAT, the switch fluorescence ratio is reported as 0.949 ± 0.043.
In the case of GAAGTAGAGG, the switch fluorescence ratio is reported as 1 ± 0.032.
Sequence GACCATGGGG has a switch fluorescence ratio of 1.07 ± 0.098.
Work on GATAGTATGT yielded a switch fluorescence ratio of 0.981 ± 0.023.
Sequence TAGGGGGCAG has a switch fluorescence ratio of 1 ± 0.033.
Sequence GTAATGCTTA has a switch fluorescence ratio of 1.011 ± 0.005.
For CAATGGAAGG, the switch fluorescence ratio was 1.03 ± 0.025.
ATGAATTCTC gave a switch fluorescence ratio of 1.01 ± 0.078.
Sequence ACGGGCATTT has a switch fluorescence ratio of 0.994 ± 0.04.
For ATTGAATGTA, the switch fluorescence ratio was 0.98 ± 0.016.
Work on TTTGAGAGTT yielded a switch fluorescence ratio of 1.03 ± 0.058.
In the case of CCGATGGGGA, the switch fluorescence ratio is reported as 1.156 ± 0.0049.
Work on TTTACAGGTA yielded a switch fluorescence ratio of 0.981 ± 0.021.
GCGATTGAGC gave a switch fluorescence ratio of 0.9808 ± 0.004.
In the case of TTTTTCTAAG, the switch fluorescence ratio is reported as 1.014 ± 0.007.
In the case of ATCATCGGGA, the switch fluorescence ratio is reported as 1.01 ± 0.013.
Sequence GGTTTTTTAG has a switch fluorescence ratio of 0.996 ± 0.021.
CGTTACTCCG gave a switch fluorescence ratio of 1.5 ± 0.16.
CATGTTACGG showed a switch fluorescence ratio of 1.055 ± 0.0065.
Work on CTTTGTCAGT yielded a switch fluorescence ratio of 0.979 ± 0.03.
With ATGGTAACGT the switch fluorescence ratio was 1.01 ± 0.044.
In the case of CTTTAAGCTT, the switch fluorescence ratio is reported as 0.9981 ± 0.0027.
TAATTGTAAT gave a switch fluorescence ratio of 1.04 ± 0.014.
AGAGTTCATA showed a switch fluorescence ratio of 1.04 ± 0.027.
GGGTGGGCCA was tested, and the switch fluorescence ratio was 0.969 ± 0.035.
With TGTAGCATCT the switch fluorescence ratio was 1.081 ± 0.0096.
Sequence AATTCACTAA has a switch fluorescence ratio of 1.028 ± 0.0063.
In the case of GGTGAAGAGG, the switch fluorescence ratio is reported as 0.9791 ± 0.0061.
Sequence CAAAGGGGAT has a switch fluorescence ratio of 0.99484 ± 0.00073.
TGGAAAAGGA was tested, and the switch fluorescence ratio was 0.9626 ± 0.0095.
In the case of CGGCTTGTG, the switch fluorescence ratio is reported as 0.99726 ± 0.00036.
Work on TTTCAATCAT yielded a switch fluorescence ratio of 0.983 ± 0.038.
TTGTTCATTT gave a switch fluorescence ratio of 0.994 ± 0.012.
Work on GTGGTCGGCA yielded a switch fluorescence ratio of 0.996 ± 0.011.
In the case of TTCCCAGTGT, the switch fluorescence ratio is reported as 1.87 ± 0.053.
For GTATTTCGGT, the switch fluorescence ratio was 0.972 ± 0.031.
Sequence CGGGAGGTAT has a switch fluorescence ratio of 1 ± 0.012.
In the case of TGGGAAAATT, the switch fluorescence ratio is reported as 1 ± 0.033.
With TATAGCTACC the switch fluorescence ratio was 1.13 ± 0.043.
For TGTACTAGGA, the switch fluorescence ratio was 0.968 ± 0.018.
Sequence TGTAAAAGGT has a switch fluorescence ratio of 1.04 ± 0.092.
ATGACCTGGG was tested, and the switch fluorescence ratio was 0.9769 ± 0.0049.
With GTGGGGGCGG the switch fluorescence ratio was 1.01 ± 0.022.
In the case of TATAGGGAAG, the switch fluorescence ratio is reported as 1.02 ± 0.026.
CAGCACGCGC was tested, and the switch fluorescence ratio was 1.06 ± 0.038.
Sequence ATAATTTTGG has a switch fluorescence ratio of 0.973 ± 0.017.
In the case of TGGTTCGCTA, the switch fluorescence ratio is reported as 1.02 ± 0.013.
TAAACAATTA gave a switch fluorescence ratio of 0.9734 ± 0.0095.
For GCAATCGAGT, the switch fluorescence ratio was 1.6 ± 0.04.

From the supplement of paper PMC10126150
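Further: ATP exposure 15 min at 22 °C before imaging.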
